From publication PMC8934648, “The MukB-topoisomerase IV interaction mutually suppresses their catalytic activities” (Nucleic Acids Research, 2021)
Substitutions are numbered along the chain they refer to. Values belong to the binder of their own block, whether it stands above or below them.

How the values were obtained:
MukBtriple (MukB3X) = target: T1, MukBtriple (MukB3X) (Escherichia coli, UniProt P22523 1-1486, D697K;D745K;E753K); test: DNA binding assay (method not stated in material); 0.5 mM Mg(OAc)2; apparent Kd; 50 mer binding: 50 mM HEPES-KOH pH 7.5, 10 mM DTT, 20 mM KCl, 0.5 mM Mg(OAc)2, 5 nM DNA; pull-down: same buffer plus 7.5% glycerol, 0.05% NP-40, loading at room temperature, assay at 37 C; settings: protein: recombinant; chain copies: 2; label: 5'-32P; blunt
T1 sequence: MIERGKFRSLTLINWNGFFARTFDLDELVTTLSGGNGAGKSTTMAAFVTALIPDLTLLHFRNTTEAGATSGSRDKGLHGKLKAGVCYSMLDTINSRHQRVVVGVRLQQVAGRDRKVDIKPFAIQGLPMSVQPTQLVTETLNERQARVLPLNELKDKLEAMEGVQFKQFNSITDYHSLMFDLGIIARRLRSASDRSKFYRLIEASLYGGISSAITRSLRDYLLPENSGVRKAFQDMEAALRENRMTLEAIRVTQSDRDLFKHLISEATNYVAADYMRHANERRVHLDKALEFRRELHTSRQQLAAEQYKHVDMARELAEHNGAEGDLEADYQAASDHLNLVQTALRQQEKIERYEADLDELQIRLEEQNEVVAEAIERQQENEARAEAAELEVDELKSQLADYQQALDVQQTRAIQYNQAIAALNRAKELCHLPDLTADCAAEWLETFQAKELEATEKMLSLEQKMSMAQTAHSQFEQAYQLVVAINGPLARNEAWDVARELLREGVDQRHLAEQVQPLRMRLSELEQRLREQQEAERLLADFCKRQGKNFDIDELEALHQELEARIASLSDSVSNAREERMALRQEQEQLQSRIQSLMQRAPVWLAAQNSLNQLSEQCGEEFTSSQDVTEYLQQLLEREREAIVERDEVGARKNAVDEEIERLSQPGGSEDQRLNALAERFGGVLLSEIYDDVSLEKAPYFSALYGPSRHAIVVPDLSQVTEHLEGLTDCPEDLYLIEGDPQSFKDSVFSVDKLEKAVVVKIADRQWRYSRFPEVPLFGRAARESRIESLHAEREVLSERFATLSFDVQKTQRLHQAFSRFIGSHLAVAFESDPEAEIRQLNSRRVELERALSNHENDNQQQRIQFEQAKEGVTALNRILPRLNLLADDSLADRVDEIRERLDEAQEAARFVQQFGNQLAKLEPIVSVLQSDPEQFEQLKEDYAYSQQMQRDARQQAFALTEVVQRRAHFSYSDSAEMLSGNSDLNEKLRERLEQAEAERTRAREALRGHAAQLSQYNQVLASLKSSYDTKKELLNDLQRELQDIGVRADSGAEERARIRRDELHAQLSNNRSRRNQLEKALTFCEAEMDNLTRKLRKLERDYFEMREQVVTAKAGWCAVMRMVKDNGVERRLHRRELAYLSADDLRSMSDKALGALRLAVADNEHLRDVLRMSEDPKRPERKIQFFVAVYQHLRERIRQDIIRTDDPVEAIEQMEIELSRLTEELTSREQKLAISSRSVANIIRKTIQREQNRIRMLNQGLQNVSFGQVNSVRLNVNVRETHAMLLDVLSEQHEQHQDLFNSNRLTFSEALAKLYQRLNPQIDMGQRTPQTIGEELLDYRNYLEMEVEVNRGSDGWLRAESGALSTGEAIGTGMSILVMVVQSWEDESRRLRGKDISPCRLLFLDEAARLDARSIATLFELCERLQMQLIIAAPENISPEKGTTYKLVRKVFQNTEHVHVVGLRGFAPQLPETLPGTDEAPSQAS

MukB [1] = target: T2, MukB (Escherichia coli, UniProt P22523 1-1486); test: as above; settings: protein: recombinant; chain copies: 2; label: 5'-32P; blunt
T2 sequence: T1 sequence with K697D, K745D, K753E

MukB [2] = target: T3, MukB (E. coli, UniProt P22523 1-1486); test: pull-down; MukB (125 nM) held on Dynabeads Protein A through affinity-purified MukB polyclonal antibodies; varying ParC; 50 mM HEPES-KOH pH 7.5, 50 mM KCl, 0.5 mM Mg(OAc)2, 7.5% glycerol, 0.05% IGEPAL, 15 min at 37°C; bound protein read from SDS-PAGE bands; fit to the Hill equation; KD dimer to dimer; settings: both partners purified
T3 construct: MukB, SMC-like condensin of Escherichia coli; also called condensin MukB; wild-type MukB
T3 sequence (looked up): T1 sequence with K697D, K745D, K753E

B1: 50mer duplex DNA (dsDNA)
DNA 1: ATCTCGGGCTATTCTTTTGATTTATAAGGGATTTTGCCGATTTCGGAACC
DNA 2: GGTTCCGAAATCGGCAAAATCCCTTATAAATCAAAAGAATAGCCCGAGAT
- Kd (MukBtriple (MukB3X)): 30 nM
- Kd (MukB [1]): 120 nM

- Kd (MukB [2]): 115 nM
B2: ParC subunit of topoisomerase IV (natural protein, E. coli, UniProt P0AFI2 1-752, looked up)
chain: MSDMAERLALHEFTENAYLNYSMYVIMDRALPFIGDGLKPVQRRIVYAMSELGLNASAKFKKSARTVGDVLGKYHPHGDSACYEAMVLMAQPFSYRYPLVDGQGNWGAPDDPKSFAAMRYTESRLSKYSELLLSELGQGTADWVPNFDGTLQEPKMLPARLPNILLNGTTGIAVGMATDIPPHNLREVAQAAIALIDQPKTTLDQLLDIVQGPDYPTEAEIITSRAEIRKIYENGRGSVRMRAVWKKEDGAVVISALPHQVSGARVLEQIAAQMRNKKLPMVDDLRDESDHENPTRLVIVPRSNRVDMDQVMNHLFATTDLEKSYRINLNMIGLDGRPAVKNLLEILSEWLVFRRDTVRRRLNYRLEKVLKRLHILEGLLVAFLNIDEVIEIIRNEDEPKPALMSRFGLTETQAEAILELKLRHLAKLEEMKIRGEQSELEKERDQLQGILASERKMNNLLKKELQADAQAYGDDRRSPLQEREEAKAMSEHDMLPSEPVTIVLSQMGWVRSAKGHDIDAPGLNYKAGDSFKAAVKGKSNQPVVFVDSTGRSYAIDPITLPSARGQGEPLTGKLTLPPGATVDHMLMESDDQKLLMASDAGYGFVCTFNDLVARNRAGKALITLPENAHVMPPVVIEDASDMLLAITQAGRMLMFPVSDLPQLSKGKGNKIINIPSAEAARGEDGLAQLYVLPPQSTLTIHVGKRKIKLRPEELQKVTGERGRRGTLMRGLQRIDRVEIDSPRRASSGDSEE
notes: ParC, breakage and reunion subunit of topoisomerase IV of Escherichia coli; also called wild-type ParC; Cwt
